The text below walks through data of the supplement of paper PMC9112550, “Optimization of the antimicrobial peptide Bac7 by deep mutational scanning” (BMC Biology, 2022).

In the data set the test system is Escherichia coli TOP10. The data set can be described thus: shrunken log2 fold change of peptide-encoding DNA abundance (4.5 h post-induction vs induction); higher = less antimicrobial activity (less host growth inhibition). As to conditions: time post-induction: 4.5 h; library: site-saturation at positions 5, 18, 19, 20.
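Note: peptides expressed intracellularly from a pBAD plasmid library in pooled LB shake-flask culture, induced with 0.3% L-arabinose, DNA abundance read by NGS, three biological replicates, DESeq2 with apeglm shrinkage.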

For RRIRCRPPRLPRPRPRPPQAPRP, the “shrunken log2 fold change” value was found to be 0.735.

Turning to RRIRYRPPRLPRPRPRPVPLPRP, the “shrunken log2 fold change” value was -0.17. On to RRIRFRPPRLPRPRPRPQGEPRP, for which the “shrunken log2 fold change” value is 0.00441. Consider RRIRDRPPRLPRPRPRPLISPRP, for which the “shrunken log2 fold change” value came to 0.116. Consider RRIRFRPPRLPRPRPRPQLTPRP, for which the “shrunken log2 fold change” value is -0.527.

For RRIRRRPPRLPRPRPRPISIPRP, the “shrunken log2 fold change” value is -0.0402. RRIRKRPPRLPRPRPRPDPIPRP: the “shrunken log2 fold change” value came out at 0.129.

Regarding RRIRDRPPRLPRPRPRPNVNPRP, the “shrunken log2 fold change” value is -0.166. For the sequence RRIRCRPPRLPRPRPRPAKRPRP, the “shrunken log2 fold change” value came to 0.0702.

Turning to RRIRDRPPRLPRPRPRPFFKPRP, the “shrunken log2 fold change” value is -0.127. For RRIRERPPRLPRPRPRPGRYPRP, the “shrunken log2 fold change” value was -0.443. For RRIRLRPPRLPRPRPRPEGEPRP, the “shrunken log2 fold change” value worked out at 0.624.

For RRIRTRPPRLPRPRPRPQRTPRP, the “shrunken log2 fold change” value was -0.296. For RRIRTRPPRLPRPRPRPLREPRP the value was 0.318. On to RRIRMRPPRLPRPRPRPEPQPRP, for which the “shrunken log2 fold change” value came to 2.17. As for RRIRARPPRLPRPRPRPGWHPRP, the “shrunken log2 fold change” value was determined as 0.378. For RRIRRRPPRLPRPRPRPGRIPRP the value was 0.0214. With RRIRARPPRLPRPRPRPWIRPRP, the “shrunken log2 fold change” value was -0.132.

For the sequence RRIRCRPPRLPRPRPRPRMCPRP, the “shrunken log2 fold change” value was found to be 0.337. Take RRIRNRPPRLPRPRPRPTCRPRP: the “shrunken log2 fold change” value came to 0.142. With RRIRIRPPRLPRPRPRPMTTPRP, the “shrunken log2 fold change” value amounted to 0.0113.

For RRIRVRPPRLPRPRPRPLAPPRP, the “shrunken log2 fold change” value came to 0.169. Consider RRIRNRPPRLPRPRPRPCNPPRP, for which the “shrunken log2 fold change” value was -0.378. For the sequence RRIRIRPPRLPRPRPRPFSCPRP, the “shrunken log2 fold change” value was -0.534.

Regarding RRIRGRPPRLPRPRPRPLPLPRP, the “shrunken log2 fold change” value is 0.627. For RRIRGRPPRLPRPRPRPSSSPRP the value was -0.296; for RRIRHRPPRLPRPRPRPWYHPRP, -1.53; for RRIRERPPRLPRPRPRPRDAPRP, 0.446. The result for RRIRWRPPRLPRPRPRPLFFPRP reads -0.00386; that for RRIRRRPPRLPRPRPRPKFWPRP, 0.278; that for RRIRYRPPRLPRPRPRPRMDPRP, -0.0437. On to RRIRVRPPRLPRPRPRPTGKPRP, for which the “shrunken log2 fold change” value is -0.116. As to RRIRIRPPRLPRPRPRPGMNPRP, the “shrunken log2 fold change” value is -0.0956. On to RRIRQRPPRLPRPRPRPWLYPRP, for which the “shrunken log2 fold change” value was -0.0636. In the case of RRIRDRPPRLPRPRPRPGSWPRP, the “shrunken log2 fold change” value worked out at 0.817. For RRIRYRPPRLPRPRPRPCELPRP, the “shrunken log2 fold change” value is -0.0555. With RRIRRRPPRLPRPRPRPCDHPRP, the “shrunken log2 fold change” value was determined as 0.0118. As to RRIRWRPPRLPRPRPRPKGNPRP, the “shrunken log2 fold change” value came to 0.514. On to RRIRKRPPRLPRPRPRPTLQPRP, for which the “shrunken log2 fold change” value came to 0.594. With RRIRKRPPRLPRPRPRPIAMPRP, the “shrunken log2 fold change” value is 0.147. With RRIRSRPPRLPRPRPRPEDTPRP, the “shrunken log2 fold change” value is -0.00541. Take RRIRKRPPRLPRPRPRPAFMPRP: the “shrunken log2 fold change” value turned out to be 0.341.

As for RRIRFRPPRLPRPRPRPKFEPRP, the “shrunken log2 fold change” value is -0.081. Regarding RRIRERPPRLPRPRPRPSAFPRP, the “shrunken log2 fold change” value was -0.089.

On to RRIRGRPPRLPRPRPRPDMTPRP, for which the “shrunken log2 fold change” value turned out to be 3.09. As to RRIRIRPPRLPRPRPRPIVLPRP, the “shrunken log2 fold change” value was -0.181. For RRIRFRPPRLPRPRPRPQAHPRP the value was -0.454; for RRIRNRPPRLPRPRPRPGYWPRP, 0.168. Consider RRIRVRPPRLPRPRPRPDVRPRP, for which the “shrunken log2 fold change” value is -0.106.

Take RRIRARPPRLPRPRPRPGHDPRP: the “shrunken log2 fold change” value was 0.215.

Turning to RRIRPRPPRLPRPRPRPMPHPRP, the “shrunken log2 fold change” value is -0.169.

Consider RRIRHRPPRLPRPRPRPGYRPRP, for which the “shrunken log2 fold change” value is -0.00177. The result for RRIRQRPPRLPRPRPRPGKEPRP reads 0.00212; that for RRIRERPPRLPRPRPRPAMCPRP, -0.456; that for RRIRSRPPRLPRPRPRPLNAPRP, 0.213. In the case of RRIRVRPPRLPRPRPRPLEKPRP, the “shrunken log2 fold change” value stood at 0.158. As to RRIRKRPPRLPRPRPRPKQSPRP, the “shrunken log2 fold change” value is 0.525. Regarding RRIRGRPPRLPRPRPRPRGYPRP, the “shrunken log2 fold change” value turned out to be 0.382.

Regarding RRIRFRPPRLPRPRPRPGLYPRP, the “shrunken log2 fold change” value was -0.171. With RRIRQRPPRLPRPRPRPTDRPRP, the “shrunken log2 fold change” value came to 0.0938.

Consider RRIRIRPPRLPRPRPRPWPDPRP, for which the “shrunken log2 fold change” value is -0.207. For RRIRHRPPRLPRPRPRPCTKPRP, the “shrunken log2 fold change” value worked out at 0.0647.
